For 21 sequences, protein production results are on record in a protein production outcome set (Wang et al. 2014).

A short description of this data set: label from the status in PepcDB records.
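Further: failed if final PepcDB status was selected cloned or expressed and not failed if soluble or beyond.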

In the case of “MNYKLTLHPGSNPVEEFTSIPHGVTSLDLSLNNLYSISTVELIQAFANTPASVTSLNLSGNSLGFKNSDELVQILAAIPANVTSLNLSGNFLSYKSSDELVKTLAAIPFTITVLDLGWNDFSSKSSSEFKQAFSNLPASITSLNLRGNDLGIKSSDELIQILAAIPANVNSLNLRGNNLASKNCAELAKFLASIPASVTSLDLSANLLGLKSYAELAYIFSSIPNHVVSLNLCLNCLHGPSLENLKLLKDSLKHLQTVYLDYDIVKNMSKEQCKALGAAFPNIQKIILVDKNGKEIHPSHSIPISNLIRELSGKADVPSLLNQCLIFAQKHQTNIEDLNIPDELRESIQTCKPLLEHHHHHH”, the protein production result is “not failed”.
Consider “MNYSIRLFKIMGIPIELHITFILFLVVIIGLSIMNNSIFWAVLFILLFVSVVLHELGHSYVAKKYGVKIEKILLLPIGGVAMMDKIPKEGELRIGIAGPLVSFIIGIVLLIVSQFFDININGYPLLYTLSLLNLMLGGFNLIPAFPMDGGRILRAILSKKYGYLKSTKIAANIGKSLALIMLLFGLLSMNIILILVSLFVYFGAEQESRVVEVETIFKNIKAKDIMTPNPVYVTPDMSIEEFLDFMLKHKYFGYPVVENGKLVGCIGIGNIHKKEGTVRDYMEKPVVVSEDTDIKEILRKMANTDRVFVVEGGKLKGIISKTDILRAMSILELKEELKD”, for which the protein production result was “failed”.
Regarding “MNYSSRQQPKRNWLRKVDWILVLVISLLALTSVILISSAMGGGQYSANFSIRQIIYYIFGAIIAFLIMIISPKKIKNNTYILYSIFCVLLIGLLILPETSITPIINGAKSWYSFGPISIQPSEFMKIILILALAKTISKHNQFTFNKSFQSDLMLFFKILGVSIIPMALILLQNDLGTTLVLCAIIAGVMLVSGITWRILAPLFIVAFVSGSSIILAIIYKPSLIENLLGIKMYQMGRINSWLDPYSYSSGDGYHLTESLKAIGSGQLLGKGYNHGEVYIPENHTDFIFSVIGEEMGFIGSVLLILLFLFLIFHLIRLASKIDSQFNKVFIIGYVSLIVFHVLQNIGMTVQLLPITGIPLPFISYGGSSLWSLMTGIGVVLSIYYHEPQRYEITTLSKKSNTI”, the protein production result is “failed”.
With “MPADWLARPRFVSAFSIVVFLLLAAFGEYVVRIEAERLRVIAQNQVLAEASTIRARLEGELYSTLYLANGLSSYVSAHKALDPAAVKIILSTVFGYGRHLRNIVLAPDNEVRFTYPLKGNEKVIGFRYQDNAEQWRAVKRAMETRTTVLSGPVDLVQGGRGLISRTPVFLPDGEYWGIVALVINIDSLFATINKDRRPARITWALRSNDETGEKGRILFGDAWLFDHDHVNLSIAIPGGSWELAATPAEGWRPPGKRLLVLRIATLALSGLIAALVFLVLFERIRIQHLALHDSLTDLPNRRLLDDRLERAIAQARRNRDGFALLYVDLDDFKPINDRFGHRAGDHVLVEIARRLRGALRRADTVARVGGDEFMLILPGARGRHGAMTVVQKLAGIICQPIGYKGQYLNVSASIGVSTYPENGVTADALISHADGSMYRFKQHRKSPTDINGNQRSGAVSSEVS”, the protein production result was “failed”.
Under “MPAIEVGETFTETRTFRPEDVDQFTALSGDDQPRHTEPDGDGRRMVQGLLTASLLTSIGGDLEVLASRMDLQFQRPVYTGETLVCELTVVSADPHTDGGVALVGDVAVRRVNRDDNSGQADTAAPNSADSAPAGTVVLEATVEGLIRE” stands “failed”; under “MPALSGLHLAPSVASFLCLAWTVALYFAVKPLYQRLPRIWLSPAIVVPALTIPLLLITGIPYAEYVADTRWMVWLLGPATIAFAVPIYEHREIVRRHWIALALGVIAGMLVAMLSARLLAEAFHFSSEVSSSLMARSVSTPFAVAVVAHTGGSAELVSLFTVMTGLAGMIVGDTVLGLLRLRSPVAQGASLGTAAHGFGTARARQRHAEEGVVASLTMVLAGVLMVIAGPTLTGWVTALVG”, “failed”.
Take “MPAPHPDSSVAPTTRLIAERALAAVFQPIVDLGSGTVVGYEGLIRGPRGTDLEPPAALFAQAARDGTTIALEQAAALACLDAFAALGCDGKLFLNFSAGTIVQLVRERERARQLLGRAGVGAERIVIELTEQTAMPDVARIEPAVASLRDAGIQFALDDYGTANASMNLWLRLHPDVVKIDRFFIHDIARDPLKFEAVRAMQHFAHASGAQLIAEGIENASDLIVVRDMGICCVQGFLLGRPNARPSPVVAPAARDAIRTPHIAVFPGAMRTARPAGTIAAKMLVPAPALPRDATSNDVLDLFNRMPGLHAVALVERGRPVALVNRRGFIDRFTLPYHREVFGKKPCLQFANDAPLMIDNATSVEQLAMLLASHDQRYLADGFVITEHGRYLGLGTGESLVRAVTEMRIEAARYANPLTFLPGNIPISAHIDRLLERDAGFHACYVDLNQFKPFNDQYGYWQGDEVLKFAATVLAGVCDPQRDFLGHVGGDDFLVLFQRDDWRARATDAIARFNDGAQRFYTQADRLAGGLRGEDRHGNPAFFGFVTMAIGAVGVPAGAHGAMRYGSDEIASVAALAKRRAKQQPGGLAVVDLDAGRAALRERGEPPLAAAG”: the protein production entry was “failed”.
Turning to “MPAQQAEQAANLGLAGFQFLAQGVFAALLLQLHAFEFGARLTADLPLALLVGMLGAEGLFGLARAVFAHPLGGRLGLAARLGPGFAGFHERLYLRNVTQSE”, the protein production entry was “failed”.
For the sequence “MPAQTNLKPVLTAAQVNVLMETVYPQLNEQFKYYEAIDVFPGGCTVRLNAGERHLRPGGTVSGPSLFTLADIGGYVCVLSHAGPDALSVTVNLDINFVRKAEAGPIDGHCRILKLGKSLMVFAIDIVAGPEGQTIAHATGTYSIPPKRIGDVVK”, the protein production result is “failed”.
The result for “MPASCQETARLLLRAPTLDDLPQACAIHGDPQTNRFNPNGPINAAACADKLHGWIEHWQQHGFGYWAIALRSDPQRLIGFGGIMQGFFGHEPGLNLYFRLRPEAWGQGYAAEMARAALHLAFSELHAPRVTGLVRPDNLPSRRALERLGLSLDGELDDFPGQAPSLLYRISAPDNPVPG” reads “failed”; that for “MPASVMTDLSAAWAAFEAHDYALAERQAQALLAHPATASGARFMLGYVYAFMDRFDEARASFQALQQQAQKSGDHTAEHRALHQVGMVERMAGNWDAARRCFLEERELLASLPEDPLAASANAYEVATVALHFGDLAGARQEYEKSLVYAQQADDQVAIACAFRGLGDLAQQEKNLLEAQQHWLRARDIFAELEDSEAVNELMTRLNGTEG”, “failed”; that for “MPAVARIDPKTIFTPDEWARLTHRSSARGLWLVAHAWGCIALAVALVTIWPNPLTWLIAVMIVGTRQLGLAILMHEAAHGGLHCNPKLNEWIGQWLCAVPVGADLPAYRRYHLQHHKYTQQPEDPDLVLSAPFPISKDSFVRKAIRDLTGQTFVKQRLPALKALFAPADSGAPKHDSFVASGKARTQRFLAANAVLLALFWLAGAGVWFVGVWLVAMATWLPLVTRVRNIAEHACTSTGADPFSQARTTLANPIERALIAPYWVNYHAEHHLFMYLPCYNLPEAHRLLRDKGLIDRVTVAPSYRDVLKLATTRPRAVAAE”, “failed”.
The result for “MPCVQAQYGSSPQGASPASQSYSYHSSGEYSSDFLTPEFVKFSMDLTNTEITATTSLPSFSTFMDNYSTGYDVKPPCLYQMPLSGQQSSIKVEDIQMHNYQQHSHLPPQSEEMMPHSGSVYYKPSSPPTPTTPGFQVQHSPMWDDPGSLHNFHQNYVATTHMIEQRKTPVSRLSLFSFKQSPPGTPVSSCQMRFDGPLHVPMNPEPAGSHHVVDGQTFAVPNPIRKPASMGFPGLQIGHASQLLDTQVPSPPSRGSPSNEGLCAVCGDNAACQHYGVRTCEGCKGFFKRTVQKNAKYVCLANKNCPVDKRRRNRCQYCRFQKCLAVGMVKEVVRTDSLKGRRGRLPSKPKSPQEPSPPSPPVSLISALVRAHVDSNPAMTSLDYSRFQANPDYQMSGDDTQHIQQFYDLLTGSMEIIRGWAEKIPGFADLPKADQDLLFESAFLELFVLRLAYRSNPVEGKLIFCNGVVLHRLQCVRGFGEWIDSIVEFSSNLQNMNIDISAFSCIAALAMVTERHGLKEPKRVEELQNKIVNCLKDHVTFNNGGLNRPNYLSKLLGKLPELRTLCTQGLQRIFYLKLEDLVPPPAIIDKLFLDTLPF” reads “not failed”; that for “MPDASAENPWLPLRQLTPARIALGRTGTSLPTRPQLDFQYAHAQARDAVHLPFDHAAISDGLRQRGRDSLLLHSAAADRHVYLQRPDLGRRLDEASVQRLREHAAGYDGQIDLAIVVADGLSALAVQRHTLPFLERLEEQALAEGWSLSPVVLVEQGRVAVADEIGELLRAKMSVILIGERPGLSSPDSLGLYFTWAPRVGLTDAYRNCISNVRLEGLSYGMAAHRLLYLMREACRRQLSGVNLKDEAEVQALDGEAPRTGNFLLAR”, “failed”; that for “MPDLGLTDAESLGHCLFDTGFGVCGIAWRAFEGKDEAPVVTLFLLPEATAAGTAAAMARRCGGSPTVPPPAIAEVIEKVRRHFRGDLQDFSRVRVEPDGAGPFARAVYSAARDVPAGQIRTYGELARALNRPAAARAVGQALGRNPVPLIIPCHRILGAGGKLGGFSAHGGVATKARMLRLEGVAV”, “failed”.
“MPDLMHSELTMSGPEQSLLAGALLGAGLPADAHRHLELAGRDYQSEALAEQHLREAHLLAPDHAAVLIGLYRFYFYKGRLGEALEVAQACLCKAARDNGLASDWRKVRRGDAEFSSYSAVLPRFYLFALKAYAYLQMRLGQLDEGHAAVEKLLELDPTDKVGAAVLLDVWRRIGLEHHHHHH”: the protein production result was “not failed”.
Turning to “MPECRNCGATLREEYRFCPMCATPQTDEASRRLNQYIEQRATKRQASGGTASSNGAENDGTLRGRLQYAAGYVAIVLGLATVTAVAGVFFLLAGLFLLPPIHGRIESAVGRRLGPAPTAGVAGVLAAFGLVVFVFL”, the protein production result was “failed”.
Under “MPEIHQSIAQHYHERTKYDPETIASKSQRLDWAKQPVPFKEYKIGSAIDLKPYLQETPEVFVNDTNGQWWQRLSRLLFRSYGLTARMPSMGNTVYLRAAPSAGGLYPAEVYVVSRGTPLLSPGLYNYQCRTHSLIHYWESDVWQSLQEACFWHPALESTQLAIIVTAVFYRSAWRYEDRAYRRICLDTGHLLGNIELSAAITDYRPHLIGGFIDEAVNDLLYIDPLQEGAIAVLPLADLLDIQQNISPGCTALPSATETNYPQVPDGELLKYFHHHTQISASITGKLNLPTVIQEKSLEDKYNFPFCLKISTVSAPIYWGENLSDLEITMHKRRSTRAYNGEELTFDELKALLDFTYQPQNYIDQSLDNSPDYFDLNLIETFIAVCGVQGLEAGCYYYAPKAQELRQIRFKNFRRELHFLCLGQELGRDAAAVIFHTSDLKSAIAQYGDRVYRYLHMDAGHLGQRLNLAAIQLNLGVSGIGGFFDDQVNEVLGIPNDEAVIYITTLGRPR” stands “not failed”; under “MPEILINYKTNREDYKRQSKYCNICMRRYKSVKKNVIILALMIVFVFVFGTVAFHLIEGWNLFDSFFFTLITVSTVGYSIPENLSQAGKVIASILISAGVTIVLYGFTSVTSMIVEGHIGEYFKSRRMRKMIDRLKDHFIVVGAGRTGRHTTLEIMKAKKPFVVIDQSEEAIARLKDFLGEEFPYVVGDATEEEILMKAGVERARSLVVTLPDDAKSTFVVLTAKSLNPNLEIVSRVSDMKALSKLVYAGADKVIATSELAGVRLAQMALNPTTISFLDILSFGEESFRIEEVVIPPESPVANKTLGEINLAKRAGTIVIAIRRGGEVIFNPTGDTKILPEDRLMVVGKSDHFEKLHRLIEEG”, “failed”.
For “MPEISPYVTKTEVQLMMAGLDYRKTNGSRDTAPKGQLPWIVDAAQAIADSTFIRVHIERKYDVDLDFGLTGRERAQAWAIERMIENQLGWVSTYFRFLEPANFERGPARAFDQAPGHLRDELRQGLREAVAANIRAVGVGRHLREEVAWLGGLSLRALDELLEDKAYLMRDAYPVGVDATAFAMLAAIMTPFFDSPLRRQAERYPRLVAYVGRMMERFYPAHPWGLRQAA”, the protein production result is given as “failed”.
On to “MPEITESERAYHLRKMKTRMQRVDVTGDGFISREDYELIAVRIAKIAKLSAEKAEETRQEFLRVADQLGLAPGVRISVEEAAVNATDSLLKMKGEEKAMAVIQSLIMYDCIDTDKDGYVSLPEFKAFLQAVGPDLTDDKAITCFNTLDFNKNGQISRDEFLVTVNDFLFGLEETALANAFYGDLVD”, for which the protein production result is “not failed”.
